Assay [1] has as its system β-catenin translocation to the nucleus and interaction with TCF4 (GSK3β inhibited by lithium ions). The experiment in a line: TIDC: β-catenin translocation and β-catenin:TCF4 interaction dependent complementation, CHO[ps1706+ps1810]. The class given is cell-based, chinese hamster. Conditions: 5 mM LiCl for 16 hours. The source says: In this example, complementary halves of GFP are fused separately to β-catenin and also to histone H2B coupled to the β-catenin-binding fragment of the transcriptional co-activator TCF4. Both constructs are then co-transfected and expressed within mammalian cells. The β-catenin construct is expected to be localised entirely in the cell cytoplasm at a low level, its concentration effectively controlled by the activity of the protein kinase GSK3β. The H2B-TCF4 construct will be localised in the nuclei of cells by the highly basic histone moeity. […] The development of nuclear fluorescence in lithium-treated cells therefore effectively reports on the combined result of translocation of β-catenin to the nucleus and the subsequent interaction between β-catenin and the β-catenin binding domain of TCF4. […]
After 10 to 12 days culture in the continuous presence of the selection agents, the resulting cell lines were judged to be stably transfected. For fluorescence microscopy, aliquots of cells were transferred to Lab-Tek chambered cover glasses (Nalge Nunc International, Naperville USA) and allowed to adhere for at least 24 hours to reach about 80% confluence. Images were collected using a Zeiss LSM410 inverted confocal fluorescence microscope (Zeiss, Jena, Germany) using x40 (oil immersion) objective. […]

For assay [2], the system named is translocation of β-catenin to the nucleus (GSK3β inhibited by lithium; FKBP:FRB induced by rapamycin). The experiment in a line: TDCrap: β-catenin translocation dependent complementation with rapamycin-inducible FKBP:FRB, CHO ps1809 with ps1827. The class given is cell-based, chinese hamster. Conditions: 5 mM LiCl for 16 hours.
From the text: In this example, complementary halves of GFP are fused separately to β-catenin and to histone H2B and co-expressed within cells. The β-catenin construct is expected to be localised entirely in the cell cytoplasm at a low level, its concentration effectively controlled by the activity of the protein kinase GSK3β. The H2B construct will be localised in the nuclei of cells by the highly basic histone moeity. […] Both constructs have also been engineered to contain inducible interaction domains. […] The H2B construct includes FRB, which is the 93 amino acid portion of FRAP, the large PI3Kinase homolog FRAP (also known as mTOR or RAFT).
Plasmids ps1809 with ps1827 were co-transfected into chinese hamster ovary cells (CHO) using the transfection agent FuGENE™ 6 (Boehringer Mannheim Corp, USA) according to the method recommended by the suppliers. […]
After 10 to 12 days culture in the continuous presence of the selection agents, the resulting cell lines were judged to be stably transfected. For fluorescence microscopy, aliquots of cells were transferred to Lab-Tek chambered cover glasses (Nalge Nunc International, Naperville USA) and allowed to adhere for at least 24 hours to reach about 80% confluence. […] Images were collected using a Zeiss LSM410 inverted confocal fluorescence microscope (Zeiss, Jena, Germany) using x40 (oil immersion) objective. […]
In assay [3] the test system is translocation of β-catenin to the nucleus (GSK3β inhibited by lithium ions). The experiment in a line: TDCzip: β-catenin translocation dependent complementation with leucine zippers, CHO[ps1736+ps1758]. The class given is cell-based, chinese hamster. Particulars: 5 mM LiCl for 16 hours. The source says: In this example, complementary halves of GFP are fused separately to β-catenin and to histone H2B and co-expressed within cells. The β-catenin construct is expected to be localised entirely in the cell cytoplasm at a low level, its concentration effectively controlled by the activity of the protein kinase GSK3β. The H2B construct will be localised in the nuclei of cells by the highly basic histone moeity. […] However, when GSK3β is inhibited by lithium ions, the cytoplasmic level of the β-catenin construct is expected to increase in the cytoplasm, and to translocate in significant fashion to the nucleus. Both constructs have been engineered to contain a leucine zipper domain. […] The development of nuclear fluorescence in lithium-treated cells therefore effectively reports on the translocation of β-catenin to the nucleus. […]
After 10 to 12 days culture in the continuous presence of the selection agents, the resulting cell lines were judged to be stably transfected. For fluorescence microscopy, aliquots of cells were transferred to Lab-Tek chambered cover glasses (Nalge Nunc International, Naperville USA) and allowed to adhere for at least 24 hours to reach about 80% confluence. […] Image collection, subsequent measurement and analysis of fluorescence intensity were all controlled by IPLab Spectrum for Windows software (Scanalytics, Fairfax, Va. USA). […]

The target in assay [4] is FRB-CtermEYFP173 (human; Aequorea victoria) (UniProt P42345). The experiment in a line: cell-based or functional assay.
The target of assay [5] is FKBP and FRB (FKBP binding part of FRAP) (Homo sapiens, UniProt P42345+P62942). The assay can be described thus: Rapamycin-inducible FKBP:FRB split-EYFP complementation, CHO-hIR [PS1767+PS1768] cells. The class given is cell-based. Conditions: 1 μM rapamycin.
Method: Probes were co-transfected in pairs into CHO-hIR cells (supra), PS1769 with PS1771 and PS1767 with PS1768, using the transfection agent FuGENE™ 6 (Boehringer Mannheim Corp, USA) according to the method recommended by the suppliers. Cells were cultured in growth medium (HAM's F12 nutrient mix with Glutamax-1, 10% foetal bovine serum (FBS), 100 μg penicillin-streptomycin mixture ml^−1 (GibcoBRL, supplied by Life Technologies, Denmark)). Transfected cells were cultured in this medium, with the addition of two selection agents appropriate to the plasmids being used, being 1 mg/ml zeocin plus 0.5 mg/mlG418 sulphate. Cells were cultured at 37° C. in 100% humidity and conditions of normal atmospheric gases supplemented with 5% CO2.
After 10 to 12 days culture in the continuous presence of the selection agents, the resulting cell lines were judged to be stably transfected. For fluorescence microscopy, aliquots of cells were transferred to Lab-Tek chambered cover glasses (Nalge Nunc International, Naperville USA) and allowed to adhere for at least 24 hours to reach about 80% confluence. Images were routinely collected using a Nikon Diaphot 300 inverted fluorescence microscope (Nikon Corp., Tokyo, Japan) using x20 (dry) and/or x40 (oil immersion) objectives and coupled to a Orca ER charged coupled device (CCD) camera (Hammamatsu Photonics K.K., Hammamatsu City, Japan). […]
Assay [6] addresses FKBP-CtermEYFP173 (human; Aequorea victoria) (UniProt P62942). The experiment in a line: cell-based or functional assay.

For the compound `[Cl-].[Li+]` [LiCl, lithium chloride], the “number of cells containing fluorescent GFP (nuclear)” value in assay [1] and in assay [2] was “the number of cells containing fluorescent GFP increases greatly” each time. Moreover, the “cells with GFP-bright nuclei” value in assay [3] was “a fraction of these cells display GFP-bright nuclei”.

In assay [4], “NtermE[F64L]YFP172-FKBP (from UniProt P62942 1-108)” gave an EC50 of FK506 in competition with 100 nM rapamycin, EYFP fluorescence/cell, 16 hours, 'black' group of 1200 nM.

Turning to `CO[C@H]1C[C@@H]2CC[C@@H](C)[C@@](O)(O2)C(=O)C(=O)N2CCCC[C@H]2C(=O)O[C@H]([C@H](C)C[C@@H]2CC[C@@H](O)[C@H](OC)C2)CC(=O)[C@H](C)/C=C(\C)[C@@H](O)[C@@H](OC)C(=O)[C@H](C)C[C@H](C)/C=C/C=C/C=C/1C` [rapamycin], the “proportion of cells with significantly greater EYFP fluorescence” value in assay [5] (after 4 hours) was “approximately 40%”. For the same compound, the “proportion of the cell population responding” value in assay [5] (after 16 hours) was “approximately 70%”.

In assay [6], “NtermE[F64L]YFP172-FRB (from UniProt P42345 2025-2114)” registered an EC50 of FK506 in competition with 100 nM rapamycin, EYFP fluorescence/cell, 16 hours, 'mid to low-green' group of 1200 nM; an EC50 of rapamycin, dose-response of EYFP fluorescence at 7 and 30 hours, 'black' FACS group of 100 nM; an EC50 of rapamycin, dose-response of EYFP fluorescence at 7 and 30 hours, 'medium to low-green' FACS group of 250 nM; a half-time for development of cellular EYFP fluorescence after 3 µM rapamycin of 5 h. In addition, in assay [6], the increase in EYFP fluorescence with rapamycin over the unstimulated value, 'medium to low-green' and 'black' FACS groups was > 20 fold; the share of cells responding 16 hours after 1 µM rapamycin was 70 % of cells; the share of cells with EYFP fluorescence before rapamycin (t=0) was < 5 % of cells; the share of cells with greater EYFP fluorescence 4 hours after 1 µM rapamycin is 40 % of cells.

Source of the values: patent US20060247419A1, “Translocation dependent complementation for drug screening” (BioImage A/S, priority 2002, published 2006).
